Results reported in US20160175384A1.
Square brackets hold non-standard residues; d marks the D form. * marks the point of attachment. Butanoyl(4-Ph) = O=C(CCCc1ccccc1)*; Butanoyl(4-ethynyl) = C#CCCCC(=O)*

Assays:
[1] = molecular target: human melanocortin 1 receptor (human) (UniProt Q01726); experiment: time-resolved lanthanide fluorescence competitive binding; reference 1-targeted UXL micelles
[2] = molecular target: human melanocortin 1 receptor (human) (UniProt Q01726); experiment: time-resolved lanthanide fluorescence competitive binding vs Eu-labeled NDP-alpha-MSH; 10% ligand loading
[3] = molecular target: human melanocortin 1 receptor (human) (UniProt Q01726); experiment: competitive binding vs Eu-NDP-alpha-MSH, time-resolved fluorescence, HCT116/hMC1R cells; concentration normalized to the targeting group

Sequence of human melanocortin 1 receptor (human) (Q01726 whole entry): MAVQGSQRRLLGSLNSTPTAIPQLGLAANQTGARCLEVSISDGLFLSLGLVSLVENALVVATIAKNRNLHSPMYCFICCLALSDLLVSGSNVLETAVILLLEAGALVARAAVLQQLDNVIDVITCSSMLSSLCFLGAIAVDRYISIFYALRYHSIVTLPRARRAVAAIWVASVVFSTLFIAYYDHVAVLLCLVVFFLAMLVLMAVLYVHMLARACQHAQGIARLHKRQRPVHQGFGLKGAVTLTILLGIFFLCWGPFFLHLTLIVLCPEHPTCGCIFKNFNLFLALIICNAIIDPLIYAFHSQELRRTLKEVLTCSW

Binder	fold lower Ki than the corresponding UXL micelles [1]	Ki [2]	Ki [3]
{Butanoyl(4-Ph)}-H[dF]RWGK(Butanoyl(4-ethynyl))-NH2 (peptide, part only; not given: crosslinked triblock polymer, part only, also: Fe(III)-crosslinked micelle)	4 times	0.0029 µM	
{Butanoyl(4-Ph)}-H[dF]RWGK(Butanoyl(4-ethynyl))-NH2 (peptide, part only; not given: uncrosslinked triblock polymer, part only, also: uncrosslinked micelle)		0.012 µM	
{Butanoyl(4-Ph)}-H[dF]RWGK(Butanoyl(4-ethynyl))-NH2 (peptide, part only; not given: triblock polymer, part only, not fully specified; printed as 4-phenylbutyryl-His-DPhe-Arg-Trp-Gly-Lys(hex-5-ynoyl)-NH2; also: Lys hex-5-ynoyl clicked via 1,2,3-triazole to PEG azide of triblock polymer micelle) [4-targeted triblock polymer micelles]			0.0115 µM
